B1: hyaluronidase1 (HYAL1): N99Q (protein)
parent chain: MAAHLLPICALFLTLLDMAQGFRGPLLPNRPFTTVWNANTQWCLERHGVDVDVSVFDVVANPGQTFRGPDMTIFYSSQLGTYPYYTPTGEPVFGGLPQNASLIAHLARTFQDILAAIPAPDFSGLAVIDWEAWRPRWAFNWDTKDIYRQRSRALVQAQHPDWPAPQVEAVAQDQFQGAARAWMAGTLQLGRALRPRGLWGFYGFPDCYNYDFLSPNYTGQCPSGIRAQNDQLGWLWGQSRALYPSIYMPAVLEGTGKSQMYVQHRVAEAFRVAVAAGDPNLPVLPYVQIFYDTTNHFLPLDELEHSLGESAAQGAAGVVLWVSWENTRTKESCQAIKEYMDTTLGPFILNVTSGALLCSQALCSGHGRCVRRTSHPKALLLLNPASFSIQLTPGGGPLSLRGALSLEDQAQMAVEFKCRCYPGWQAPWCERKSMW
B2: hyaluronidase1 (HYAL1): N216Q (protein)
parent chain: B1 parent chain
B3: hyaluronidase1 (HYAL1): N350Q (protein)
parent chain: B1 parent chain

What was measured:
[1] = cell lysate anti-myc blot; conditions: glycan lost; control: wild type
[2] = in-gel HA digestion, alcian blue staining; conditions: glycan lost; control: wild type

Row | Protein | expression_or_secretion [1] | enzymatic_activity [2]
1 | B1 | decreases | –
2 | B2 | decreases | decreases
3 | B3 | decreases | decreases

Reference: paper PMC4087149
